According to publication PMC2917185 (Nature structural & molecular biology, 2010):
Substitutions are numbered along the chain they refer to. Numbers in names are those of the source. Where “and” joins values, the source holds several entries; their conditions need not be identical. Equal entries are not always repeated. Where two headings read alike, the source gives them in different places.

B1: cpSRP (chloroplast signal recognition particle, cpSRP43 with cpSRP54) (complex)
chain 1: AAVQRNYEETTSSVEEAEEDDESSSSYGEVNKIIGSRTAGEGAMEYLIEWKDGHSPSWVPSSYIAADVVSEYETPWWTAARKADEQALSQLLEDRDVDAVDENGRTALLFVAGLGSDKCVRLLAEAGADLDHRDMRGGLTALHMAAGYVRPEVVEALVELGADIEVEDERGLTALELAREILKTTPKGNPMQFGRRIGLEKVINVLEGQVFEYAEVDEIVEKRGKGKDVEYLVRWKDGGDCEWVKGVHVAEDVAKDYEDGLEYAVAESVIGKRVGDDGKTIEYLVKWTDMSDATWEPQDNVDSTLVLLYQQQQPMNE
chain 2: EMFGQLTGGLEAAWSKLKGEEVLTKDNIAEPMRDIRRALLEADVSLPVVRRFVQSVSDQAVGMGVIRGVKPDQQLVKIVHDELVKLMGGEVSELQFAKSGPTVILLAGLQGVGKTTVCAKLACYLKKQGKSCMLIAGDVYRPAAIDQLVILGEQVGVPVYTAGTDVKPADIAKQGLKEAKKNNVDVVIMDTAGRLQIDKGMMDELKDVKKFLNPTEVLLVVDAMTGQEAAALVTTFNVEIGITGAILTKLDGDSRGGAALSVKEVSGKPIKLVGRGERMEDLEPFYPDRMAGRILGMGDVLSFVEKATEVMRQEDAEDLQKKIMSAKFDFNDFLKQTRAVAKMGSMTRVLGMIPGMGKVSPAQIREAEKNLLVMEAMIEVMTPEERERPELLAESPERRKRIAKDSGKTEQQVSALVAQIFQMRVKMKNLMGVMEGGSIPALSGLEDALKAEQKAPPGTARRKRKADSRKKFVESASSKPGPRGFGSGN
B2: cpSRP-Y204A (cpSRP assembled from cpSRP43-Y204A and cpSRP54) (complex)
chain 1: B1 chain 1 with Y148A
chain 2: B1 chain 2
B3: cpSRP-R161A (cpSRP assembled from cpSRP43-R161A and cpSRP54) (complex)
chain 1: B1 chain 1 with R105A
chain 2: B1 chain 2
B4: cpSRP43 ΔCD2ΔCD3 (CD1–Ank4 fragment) (domain or fragment)
chain: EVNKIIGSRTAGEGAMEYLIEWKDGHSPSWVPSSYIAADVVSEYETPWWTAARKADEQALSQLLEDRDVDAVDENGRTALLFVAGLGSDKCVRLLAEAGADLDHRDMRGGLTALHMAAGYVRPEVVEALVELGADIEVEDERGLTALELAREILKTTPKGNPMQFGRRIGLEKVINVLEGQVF

Tests used:
[1] = target: LHCP (light-harvesting chlorophyll a/b binding protein), fluorescein-labeled (UniProt P07371 38-269); assay: fluorescence polarisation
[2] = target: LHCP (light-harvesting chlorophyll a/b binding protein), fluorescein-labeled (UniProt P07371 38-269); assay: fluorescence polarisation; remark: listed apart in the source

Binder	Kd [1]	Kd [2] [nM]
B1	76 nM and 128 nM	–
B2	> 5000 nM	–
B3	1200 nM	–
B4	–	> 10000
